This note sets out measurements from patent US20030073218A1, “High affinity inhibitors for target validation and uses thereof” (Princeton University, priority 1999, published 2003).

Usually Km stands for the substrate concentration at which the rate is half of its maximum. The term kcat denotes the number of substrate molecules converted per active site and unit of time at saturation. A word on the kcat/Km: it is the turnover number divided by the Michaelis constant.

In this data set the test system is T1, Nc1ncnc2c1ncn2[C@@H]1O[C@H](COP(=O)(O)OP(=O)(O)OP(=O)(O)O)[C@@H](O)[C@H]1O.
T1 construct: made in house; host or cells: Sf9 insect cells, baculovirus, co-infected with Cak1-HA3 (Cdc28-His6); bacteria (MBP-Clb2)
The data set can be described thus: purified protein, by the assay type. The class given is biochemical, Saccharomyces cerevisiae. The settings on record: other: Cdc28 · MBP-Clb2; pH 7.4; 23.0 °C.

Sequence of Cdc28 · MBP-Clb2 (Saccharomyces cerevisiae S288C) (chain, as listed by the source S288C): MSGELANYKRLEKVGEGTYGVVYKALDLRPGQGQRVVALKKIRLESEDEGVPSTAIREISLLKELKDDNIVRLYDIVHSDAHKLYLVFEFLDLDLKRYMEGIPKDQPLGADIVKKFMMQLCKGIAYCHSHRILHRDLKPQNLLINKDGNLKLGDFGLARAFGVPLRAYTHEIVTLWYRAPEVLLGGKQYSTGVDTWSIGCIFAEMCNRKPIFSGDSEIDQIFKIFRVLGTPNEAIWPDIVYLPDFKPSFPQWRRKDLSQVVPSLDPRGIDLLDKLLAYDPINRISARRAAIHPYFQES

Regarding “Cdc28 · MBP-Clb2 (Saccharomyces cerevisiae S288C)”, the Km turned out to be 35 µM, the kcat turned out to be 2.2 s⁻¹ and the kcat/Km came out at 62170 M⁻¹ s⁻¹.
